The target of experiment [1] is PTPRZ1 CA protein (Cusabio Technology LLC, CSB-YP019068HU) (Homo sapiens, UniProt P23471). The experiment in a line: SPR. In general terms: Surface plasmon resonance follows binding to a sensor surface in real time, without labels.
The target of experiment [2] is carbonic anhydrase II protein (Sigma Aldrich, C2522) (Bos taurus, UniProt P00921). In words: SPR.
carbonic anhydrase II protein (Sigma Aldrich, C2522), sequence (P00921 whole entry): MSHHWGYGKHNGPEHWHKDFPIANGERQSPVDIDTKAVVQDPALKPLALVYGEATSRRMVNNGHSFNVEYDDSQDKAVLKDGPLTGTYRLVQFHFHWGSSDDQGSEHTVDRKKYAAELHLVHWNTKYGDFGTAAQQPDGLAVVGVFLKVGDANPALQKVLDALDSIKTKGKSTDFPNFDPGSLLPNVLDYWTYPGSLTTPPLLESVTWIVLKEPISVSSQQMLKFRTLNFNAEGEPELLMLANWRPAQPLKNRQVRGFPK

PTPRZ1 CA protein (Cusabio Technology LLC, CSB-YP019068HU), sequence (P23471 36-300): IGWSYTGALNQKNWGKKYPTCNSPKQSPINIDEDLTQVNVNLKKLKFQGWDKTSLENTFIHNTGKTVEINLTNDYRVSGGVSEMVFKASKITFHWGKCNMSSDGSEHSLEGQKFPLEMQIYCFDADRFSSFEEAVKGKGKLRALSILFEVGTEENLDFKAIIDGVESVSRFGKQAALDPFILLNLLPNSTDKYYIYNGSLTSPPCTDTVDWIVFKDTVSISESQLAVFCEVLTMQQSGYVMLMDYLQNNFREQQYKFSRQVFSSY

B1: anti-PTPRZ1 scFv RB473, scFv-Rabbit Fc (scFv, V domains shown)
VH: not shown
VL: QSVLTQPPSVSAAPGQKVTISCSGSSSNIGNNYVSWYQQLPGTAPKLLIYDNNKRPSGIPDRFSGSKSGTSATLGITGLQTGDEADYYCGTYDYIATRAVFGGGTKLTVL
By Kd is commonly meant the equilibrium constant for the complex coming apart. A lower Kd goes with higher affinity. B1 displayed a dissociation constant Kd in experiment [1] of 57.4 nM. Further, the binding result in experiment [2] is “no binding (tested: 800 nM)”.
